± gives the standard deviation.
Experiment: protein stability index of a GFP-peptide fusion (GPS, HEK-293T) (PSI 1-6); higher = more stable
Conditions: c terminus: a fixed tail appended
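Also: 24-mer peptide tiles fused after GFP, lentivirally expressed, FACS-sorted into six equal bins by GFP/DsRed ratio, decoded by Illumina sequencing, PSI is the read-weighted mean bin number.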

Sequence: NVTRHQAECALNERGVEGDFLIRD [NCK2]
- protein stability index (treatment: DMSO): 4.35 ± 0.27
- protein stability index (treatment: MLN4924 1 uM, 8 h): 4.5 ± 0.31

Sequence: IRIKLDPCHPTVKNWRNFASKWGM [EDARADD]
- protein stability index (treatment: DMSO): 3.28 ± 0.61
- protein stability index (treatment: MLN4924 1 uM, 8 h): 2.58 ± 0.76

Sequence: LSGATKKGTEKQTTSETQKSVQCG [NETO1]
- protein stability index (treatment: DMSO): 5.17 ± 0.27
- protein stability index (treatment: MLN4924 1 uM, 8 h): 5.22 ± 0.24

Sequence: IRVKIADLGNACWVHKHFTEDIQT [SRPK2]
- protein stability index (treatment: DMSO): 2.43 ± 0.5
- protein stability index (treatment: MLN4924 1 uM, 8 h): 2.26 ± 0.57

Sequence: GSKGEKDLGASSLHVNGESLEMDS [EHMT1]
- protein stability index (treatment: DMSO): 5.28 ± 0.26
- protein stability index (treatment: MLN4924 1 uM, 8 h): 5.39 ± 0.27

Sequence: AMYIDTEGTFRPERLLAVAERYGL [RAD51]
- protein stability index (treatment: DMSO): 2.37 ± 0.19
- protein stability index (treatment: MLN4924 1 uM, 8 h): 2.39 ± 0.27

Sequence: ESSMEDCLAHLGEKVSQELKEPLH [BCL2L13]
- protein stability index (treatment: DMSO): 4.97 ± 0.2
- protein stability index (treatment: MLN4924 1 uM, 8 h): 5.09 ± 0.32

Sequence: LESLQDGAAESPYAYSNGIDYKTT [RAB40C]
- protein stability index (treatment: DMSO): 4.29 ± 0.34
- protein stability index (treatment: MLN4924 1 uM, 8 h): 4.5 ± 0.16

Sequence: EVFEGREDSIFGDPKKLLTQYFVQ [MAGEA6]
- protein stability index (treatment: DMSO): 2.34 ± 0.18
- protein stability index (treatment: MLN4924 1 uM, 8 h): 2.46 ± 0.18

Sequence: LFTSFQEPPCEGNTFFCHSNMCIN [NETO1]
- protein stability index (treatment: DMSO): 2.14 ± 0.42
- protein stability index (treatment: MLN4924 1 uM, 8 h): 2.13 ± 0.41

Sequence: NSLITAPGEFSDASMSPDATKPSH [SMAD6]
- protein stability index (treatment: DMSO): 5.07 ± 0.21
- protein stability index (treatment: MLN4924 1 uM, 8 h): 5.23 ± 0.18

Sequence: EERVRVLQGVRLSENVVNRMKEPS [CHCHD6]
- protein stability index (treatment: DMSO): 4.6 ± 0.51
- protein stability index (treatment: MLN4924 1 uM, 8 h): 4.64 ± 0.19

Sequence: EPDAADGPYDPNSVRISFAKGWGP [SMAD6]
- protein stability index (treatment: DMSO): 4.17 ± 0.13
- protein stability index (treatment: MLN4924 1 uM, 8 h): 4.19 ± 0.17

Sequence: CWNTSYCSIKCQQEHWHAEHKRTC [ZMYND11]
- protein stability index (treatment: DMSO): 2.31 ± 0.39
- protein stability index (treatment: MLN4924 1 uM, 8 h): 2.32 ± 0.22

Sequence: MSEPAGDVRQNPCGSKACRRLFGP [CDKN1A]
- protein stability index (treatment: DMSO): 3.58 ± 0.39
- protein stability index (treatment: MLN4924 1 uM, 8 h): 3.61 ± 0.14

Sequence: KPSFQSGGRRRPPASSRNRSPSGS [RBMY1A1]
- protein stability index (treatment: DMSO): 4.93 ± 0.33
- protein stability index (treatment: MLN4924 1 uM, 8 h): 5.35 ± 0.32

Sequence: PKELSSFSFSMKGHEKTAKSKTRS [DLC1]
- protein stability index (treatment: DMSO): 4.73 ± 0.31
- protein stability index (treatment: MLN4924 1 uM, 8 h): 4.78 ± 0.21

Sequence: FVGYNPYSHLAYNNYRLGGNPSTN [SMARCE1]
- protein stability index (treatment: DMSO): 2.87 ± 0.21
- protein stability index (treatment: MLN4924 1 uM, 8 h): 2.54 ± 0.2

Sequence: TKGEKIMLAIITKMTLTQVSTWFA [IRX6]
- protein stability index (treatment: DMSO): 2.97 ± 0.5
- protein stability index (treatment: MLN4924 1 uM, 8 h): 2.95 ± 0.68

Sequence: DMRNSATFKSFEDRVGTIKSKVVG [TPD52L2]
- protein stability index (treatment: DMSO): 3.24 ± 0.16
- protein stability index (treatment: MLN4924 1 uM, 8 h): 3.61 ± 0.23

Sequence: FQEQVEKLKALHVDSAEYSCLKAI [NR2F2]
- protein stability index (treatment: DMSO): 3.61 ± 0.2
- protein stability index (treatment: MLN4924 1 uM, 8 h): 3.74 ± 0.23

Sequence: SYLSLTSEDNTSFDRKKKSISLMY [SLA]
- protein stability index (treatment: DMSO): 2.94 ± 0.18
- protein stability index (treatment: MLN4924 1 uM, 8 h): 2.95 ± 0.25

Sequence: STMRRMALRPTAFSGCLNCSKVSE [EMID1]
- protein stability index (treatment: DMSO): 2.5 ± 0.21
- protein stability index (treatment: MLN4924 1 uM, 8 h): 3.13 ± 0.62

Sequence: AATQALPQDSGTAAWKGRVLLPET [C22orf31]
- protein stability index (treatment: DMSO): 4.11 ± 0.062
- protein stability index (treatment: MLN4924 1 uM, 8 h): 4.1 ± 0.24

Sequence: QAQIELRLLELMNQHDTEMKYYIV [DYRK1B]
- protein stability index (treatment: DMSO): 2.24 ± 0.23
- protein stability index (treatment: MLN4924 1 uM, 8 h): 2.49 ± 0.47

Sequence: MDDPKGDFITLYQMASQSSASHYK [M1AP]
- protein stability index (treatment: DMSO): 3.27 ± 0.25
- protein stability index (treatment: MLN4924 1 uM, 8 h): 3.31 ± 0.22

Sequence: MSSYTVAGRNVLRWDLSPEQIKTR [NLN]
- protein stability index (treatment: DMSO): 2.99 ± 0.33
- protein stability index (treatment: MLN4924 1 uM, 8 h): 3.04 ± 0.18

Sequence: MSEIRFTNLTWDQVITLDQVLDEV [TENT5D]
- protein stability index (treatment: DMSO): 2.33 ± 0.33
- protein stability index (treatment: MLN4924 1 uM, 8 h): 2.31 ± 0.27

Sequence: DPACYEFLWGPRALVETSYVKVLH [MAGEA3]
- protein stability index (treatment: DMSO): 2.12 ± 0.2
- protein stability index (treatment: MLN4924 1 uM, 8 h): 2.12 ± 0.36

Sequence: DELVGLPFSSHTYSQASELPTDAV [FBXO34]
- protein stability index (treatment: DMSO): 4.95 ± 0.18
- protein stability index (treatment: MLN4924 1 uM, 8 h): 4.81 ± 0.081

Sequence: EGVISVSEDRTVRVWLKRDSGQYW [WDFY2]
- protein stability index (treatment: DMSO): 2.17 ± 0.2
- protein stability index (treatment: MLN4924 1 uM, 8 h): 2.3 ± 0.12

Sequence: ENKDHSLERGRASLIFSLKNEVGG [TPH1]
- protein stability index (treatment: DMSO): 4.09 ± 0.18
- protein stability index (treatment: MLN4924 1 uM, 8 h): 3.82 ± 0.38

Sequence: QFISRFLEGQSGVTIKHVACGDFF [NEK8]
- protein stability index (treatment: DMSO): 2.51 ± 0.47
- protein stability index (treatment: MLN4924 1 uM, 8 h): 2.39 ± 0.37

Sequence: GEDSSTSSSTPLEDEEPQEPNRLE [RTN2]
- protein stability index (treatment: DMSO): 5.56 ± 0.26
- protein stability index (treatment: MLN4924 1 uM, 8 h): 5.57 ± 0.25

Sequence: SILLCLLASGLVVFFLFPHSVLVD [TMEM106C]
- protein stability index (treatment: DMSO): 3 ± 0.49
- protein stability index (treatment: MLN4924 1 uM, 8 h): 2.56 ± 0.044

Sequence: DSSEEKHLEEPGETQNAFLNERKQ [CHGB]
- protein stability index (treatment: DMSO): 5.5 ± 0.41
- protein stability index (treatment: MLN4924 1 uM, 8 h): 5.41 ± 0.36

Sequence: TFFEVSPLCNFNITESFTELARIV [RAB40B]
- protein stability index (treatment: DMSO): 2.24 ± 0.51
- protein stability index (treatment: MLN4924 1 uM, 8 h): 2.14 ± 0.16

Sequence: MEQVHRGIKGLVRDSHGKGIPNAI [CPXM2]
- protein stability index (treatment: DMSO): 3.68 ± 0.56
- protein stability index (treatment: MLN4924 1 uM, 8 h): 4.35 ± 0.17

Sequence: QLERPLPLTSVCYPQDLPRPLRSR [TRAF3IP2]
- protein stability index (treatment: DMSO): 4.05 ± 0.21
- protein stability index (treatment: MLN4924 1 uM, 8 h): 4.1 ± 0.24

Sequence: ELDEPQHEMVAHRHRQEVLCKEMV [ZSCAN9]
- protein stability index (treatment: DMSO): 4.72 ± 0.24
- protein stability index (treatment: MLN4924 1 uM, 8 h): 4.76 ± 0.26

Sequence: ECGKAFSQSSYLSQHRRIHSGEKP [ZNF232]
- protein stability index (treatment: DMSO): 3.57 ± 0.28
- protein stability index (treatment: MLN4924 1 uM, 8 h): 3.61 ± 0.15

Sequence: YRFLLYGLHEGKRLGPLSAEGTTG [TNXB]
- protein stability index (treatment: DMSO): 2.8 ± 0.62
- protein stability index (treatment: MLN4924 1 uM, 8 h): 2.29 ± 0.31

Sequence: RMLQREGCFRSQGASLRLAVEDGL [M1AP]
- protein stability index (treatment: DMSO): 3.1 ± 0.22
- protein stability index (treatment: MLN4924 1 uM, 8 h): 2.94 ± 0.14

Sequence: RSAMSGASQPRGPALLFPATRGVP [TRIB1]
- protein stability index (treatment: DMSO): 3.554 ± 0.019
- protein stability index (treatment: MLN4924 1 uM, 8 h): 4.14 ± 0.29

Sequence: RAYQYTTLTSVQLLDCFGIPVLMA [SLC35F2]
- protein stability index (treatment: DMSO): 3.13 ± 0.64
- protein stability index (treatment: MLN4924 1 uM, 8 h): 2.66 ± 0.85
